From patent US20170369595A1 (Hoffmann-La Roche, published 2017)

B1: BsAb CD33-Dig(SS)-CD33 (bispecific antibody)
light: DIQLTQSPSTLSASVGDRVTITCRASESLDNYGIRFLTWFQQKPGKAPKLLMYAASNQGSGVPSRFSGSGSGTEFTLTISSLQPDDFATYYCQQTKEVPWSFGQGTKVEVKRTVAAPSVFIFPPSDEQLKSGTASVVCLLNNFYPREAKVQWKVDNALQSGNSQESVTEQDSKDSTYSLSSTLTLSKADYEKHKVYACEVTHQGLSSPVTKSFNRGEC
heavy 1: EVQLVQSGAEVKKPGSSVKVSCKASGYTITDSNIHWVRQAPGQSLEWIGYIYPYNGGTDYNQKFKNRATLTVDNPTNTAYMELSSLRSEDTAFYYCVNGNPWLAYWGQGTLVTVSSASTKGPSVFPLAPSSKSTSGGTAALGCLVKDYFPEPVTVSWNSGALTSGVHTFPAVLQSSGLYSLSSVVTVPSSSLGTQTYICNVNHKPSNTKVDKKVEPKSCGGGGSGGGGSGGGGSGGGGSQVQLVESGGGLVKPGGSLRLSCAASGFTFSDYAMSWIRQAPGKCLEWVSSINIGATYIYYADSVKGRFTISRDNAKNSLYLQMNSLRAEDTAVYYCARPGSPYEYDKAYYSMAYWGQGTTVTVSSGQPREPQVYTLPPCRDELTKNQVSLWCLVKGFYPSDIAVEWESNGQPENNYKTTPPVLDSDGSFFLYSKLTVDKSRWQQGNVFSCSVMHEALHNHYTQKSLSLSPGK
heavy 2: EVQLVQSGAEVKKPGSSVKVSCKASGYTITDSNIHWVRQAPGQSLEWIGYIYPYNGGTDYNQKFKNRATLTVDNPTNTAYMELSSLRSEDTAFYYCVNGNPWLAYWGQGTLVTVSSASTKGPSVFPLAPSSKSTSGGTAALGCLVKDYFPEPVTVSWNSGALTSGVHTFPAVLQSSGLYSLSSVVTVPSSSLGTQTYICNVNHKPSNTKVDKKVEPKSCGGGGSGGGGSGGGGSGGGGSDIQMTQSPSSLSASVGDRVTITCRASQDIKNYLNWYQQKPGKAPKLLIYYSSTLLSGVPSRFSGSGSGTDFTLTISSLQPEDFATYYCQQSITLPPTFGCGTKVEIKGQPREPQVCTLPPSRDELTKNQVSLSCAVKGFYPSDIAVEWESNGQPENNYKTTPPVLDSDGSFFLVSKLTVDKSRWQQGNVFSCSVMHEALHNHYTQKSLSLSPGK
notes: Trivalent, bispecific; no CH2; (Gly4Ser)4 connectors; In the FACS assay it carried Dig-Cy5 as payload
B2: BsAb Dig-CD33-Dig (bispecific antibody)
light: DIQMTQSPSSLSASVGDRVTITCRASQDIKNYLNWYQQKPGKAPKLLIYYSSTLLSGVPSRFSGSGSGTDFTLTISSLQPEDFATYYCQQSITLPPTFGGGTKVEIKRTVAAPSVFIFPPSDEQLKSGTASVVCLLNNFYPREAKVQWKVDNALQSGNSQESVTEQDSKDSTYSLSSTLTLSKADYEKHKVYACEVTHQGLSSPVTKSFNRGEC
heavy 1: QVQLVESGGGLVKPGGSLRLSCAASGFTFSDYAMSWIRQAPGKGLEWVSSINIGATYIYYADSVKGRFTISRDNAKNSLYLQMNSLRAEDTAVYYCARPGSPYEYDKAYYSMAYWGQGTTVTVSSASTKGPSVFPLAPSSKSTSGGTAALGCLVKDYFPEPVTVSWNSGALTSGVHTFPAVLQSSGLYSLSSVVTVPSSSLGTQTYICNVNHKPSNTKVDKKVEPKSCGGGGSGGGGSGGGGSGGGGSEVQLVQSGAEVKKPGSSVKVSCKASGYTITDSNIHWVRQAPGQSLEWIGYIYPYNGGTDYNQKFKNRATLTVDNPTNTAYMELSSLRSEDTAFYYCVNGNPWLAYWGQGTLVTVSSGQPREPQVYTLPPCRDELTKNQVSLWCLVKGFYPSDIAVEWESNGQPENNYKTTPPVLDSDGSFFLYSKLTVDKSRWQQGNVFSCSVMHEALHNHYTQKSLSLSPGK
heavy 2: QVQLVESGGGLVKPGGSLRLSCAASGFTFSDYAMSWIRQAPGKGLEWVSSINIGATYIYYADSVKGRFTISRDNAKNSLYLQMNSLRAEDTAVYYCARPGSPYEYDKAYYSMAYWGQGTTVTVSSASTKGPSVFPLAPSSKSTSGGTAALGCLVKDYFPEPVTVSWNSGALTSGVHTFPAVLQSSGLYSLSSVVTVPSSSLGTQTYICNVNHKPSNTKVDKKVEPKSCGGGGSGGGGSGGGGSGGGGSDIQLTQSPSTLSASVGDRVTITCRASESLDNYGIRFLTWFQQKPGKAPKLLMYAASNQGSGVPSRFSGSGSGTEFTLTISSLQPDDFATYYCQQTKEVPWSFGQGTKVEVKGQPREPQVCTLPPSRDELTKNQVSLSCAVKGFYPSDIAVEWESNGQPENNYKTTPPVLDSDGSFFLVSKLTVDKSRWQQGNVFSCSVMHEALHNHYTQKSLSLSPGK
notes: as for B1

Biological target: T1, CD33 (UniProt P20138 18-364, limits assumed)
T1 construct: whole, on cells; Endogenous antigen on Molm13 cells; also called cell surface antigen CD33; CD33-expressing Molm13 cells
T1 sequence (P20138 18-364 limits assumed): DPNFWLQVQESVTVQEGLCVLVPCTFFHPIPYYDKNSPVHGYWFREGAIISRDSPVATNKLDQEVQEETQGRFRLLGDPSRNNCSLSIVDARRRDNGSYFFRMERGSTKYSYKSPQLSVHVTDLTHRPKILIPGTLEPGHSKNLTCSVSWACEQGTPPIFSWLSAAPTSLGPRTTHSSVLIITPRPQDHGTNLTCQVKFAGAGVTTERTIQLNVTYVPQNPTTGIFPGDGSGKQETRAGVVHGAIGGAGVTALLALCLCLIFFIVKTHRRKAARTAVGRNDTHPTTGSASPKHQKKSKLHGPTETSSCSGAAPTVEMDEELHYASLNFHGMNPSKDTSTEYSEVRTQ
Test: FACS on CD33-expressing Molm13 cells, Dig-Cy5 as payload
Description: Simultaneous antigen binding of the antibodies generated in example 1 was analyzed by FACS analysis on LeY-expressing MCF7 cells, CD33-expressing Molm13 cells and GPC3-expressing HepG2 cells using Dig-Cy5 as payload to address hapten binding.

Binder	binding result
B1	binds
B2	binds
